In publication doi:10.1101/2022.01.19.476892:

Biological target: SARS-CoV S-6P protein (SARS-CoV) (UniProt P59594)
Assay: cryo-EM structure

Q: With “SARS-CoV S-6P protein (from UniProt P59594 14-1195) (domain or fragment)” as the substance, how does the stoichiometry N read?
A: The stoichiometry N was 3.
